Patent US8192734B2, “Compositions and methods for bone strengthening” (Cornell University, priority 2007, dated 2012)

Columns and labels:
Type in all cases: in vivo, pig
[1] = system: pigs fed P-adequate corn-soybean meal basal diet; assay: Expt 1: metatarsal mineral concentrations (ICP)
[2] = system: pigs fed P-adequate corn-soybean meal basal diet; assay: Expt 2: metatarsal and femur breaking strength, three-point bending test; details: main effect, phytase 2,000 U/kg or Sr 50 mg/kg
Protocol: Third and 4th metatarsals in both experiments and femur (right leg) in Experiment 2 were prepared by manually removing surrounding skin, muscle and other tissues. Bones were stored in closed plastic bags at 4° C. until strength analysis. Maximal breaking load was measured using an Instron 4500 Machine (Canton, Mass.) at room temperature (23° C.) by subjecting each bone to a three-point bending test^(28). During mechanical tests, force was applied to the center of the bone held by supports 2.0 cm apart for metatarsals and 3.3 cm apart for femur. The crosshead speed was set at 50 mm/min and the sample rate was 10 points/s. Final strength was determined from load-displacement curves indicating the maximum loads. The metatarsal breaking strength was expressed as the mean strength of four bones from both left and right feet of pigs in Experiment 1, and as the mean of the two bones from the right foot of pigs in Experiment 2.

[3] = system: pigs fed P-adequate corn-soybean meal basal diet; assay: Expt 2: BMC, BMD and bone area by dual energy X-ray absorptiometry
Protocol: In Experiment 2, bone mineral content (BMC, g) and bone mineral density (BMD, g/cm^2) of 3rd and 4th metatarsals from the left foot and femur from the left leg of each pig were measured. After being thawed to room temperature, entire bones were placed on a rice bag (to remove background effects) and scanned by dual energy X-ray absorptiometry using the GE Lunar Prodigy instrument (GE Lunar, Prodigy, Madison Wis.) in the small animal scan mode. Values of BMC and BMD were predicted by analysis of scans using Prodigy software (version 10.10.038).

[4] = system: pigs fed P-adequate corn-soybean meal basal diet; assay: Expt 2: femur geometrical and strength properties
Protocol: A three-point bending test was conducted on the dissected bones to generate load-deformation curves with an Instron Model 5566 (Norwood, Mass.). Mechanical properties of bones were calculated using formula as previously described^(29). Bone cross sections were cut at the mid-point of loading and used to determine area moment of inertia. Cross sections were submersed for 5 min in a 0.4 mol/L sodium hypochlorite solution to remove periosteum and marrow tissue, and then embedded in blue clay (Play-Doh, Hasbro, Pawtucket, R.I.) to prevent depth-of-field distortions and to enhance contrasts. The embedded sections were scanned with a flat-bed scanner (Epson Perfection Model 3490, Long Beach, Calif.) and analyzed using Image J software (30) to measure the x-y coordinates of bone pixels.

[5] = system: pigs fed P-adequate corn-soybean meal basal diet; assay: Expt 2: metatarsal and femur mineral concentrations (ICP)
Protocol: After the breaking strength analysis, samples (˜100 to 200 mg) of metatarsals in both experiments and femur in Experiment 2 from the right legs were used for mineral analysis. Cortical bones were isolated after removing attached connective tissue using a stainless steel scalpel and collecting individual shards using needle-nosed pliers with plastic-covered clamps. […] Concentrations of individual elements in the dried bone samples were measured using inductively coupled argon plasma spectrophotometer (ICAP 61E Trace Analyzer, Thermo Jarell Ash corporation, Franklin, Mass.)(31). Samples were digested in a mixture of HNO3 and HClO4 (9:1, vol/vol), and then diluted in 5% HNO3 before analysis.

[6] = system: weanling pigs fed high P diet; assay: Examples 4-8: cortical and cancellous bone ash and mineral profile; details: 8 wk, 0.35% iP + Sr 50 mg/kg + phytase 3,400 U/kg
[7] = length x width by DXA, diets with phytase
[8] = main effect, phytase 2,000 U/kg or Sr 50 mg/kg
[9] = phytase 2000 U/kg and/or Sr 50 mg/kg, n=6

B1: Phytase: Escherichia coli AppA2 phytase (OptiPhos, JBS United, Inc.), added to diets at feed mixing; AppA2 is SEQ ID NO: 2 (protein, listed as Escherichia coli)
chain: MKAILIPFLSLLIPLTPQSAFAQSEPELKLESVVIVSRHGVRAPTKATQLMQDVTPDAWPTWPVKLGWLTPRGGELIAYLGHYQRQRLVADGLLAKKGCPQPGQVAIIADVDERTRKTGEAFAAGLAPDCAITVHTQADTSSPDPLFNPLKTGVCQLDNANVTDAILSRAGGSIADFTGHRQTAFRELERVLNFSQLNLCLNREKQDESCSLTQALPSELKVSADNVSLTGAVSLASMLTEIFLLQQAQGMPEPGWGRITDSHQWNTLLSLHNAQFYLLQRTPEVARSRATPLLDLIMAALTPHPPQKQAYGVTLPTSVLFIAGHDTNLANLGGALELNWTLPGQPDNTPPGGELVFERWRRLSDNSQWIQVSLVFQTLQQMRDKTPLSLNTPPGEVKLTLAGCEERNAQGMCSLAGFTQIVNEARIPACSL
B1 was tested, and the “higher Sr concentration in metatarsals vs BD” value ([1]; BD + phytase 2,000 U/kg, 6 wk, P<0.05) was 7%, the “metatarsal Ca concentration” value ([1]; phytase 2000 U/kg, n=8) was 217.3 g/kg and the “metatarsal Cr concentration” value ([1]; phytase 2000 U/kg, n=8) was 6.4 mg/kg. The “metatarsal Fe concentration” value ([1]; phytase 2000 U/kg, n=8) was 15.7 mg/kg, the “metatarsal Mg concentration” value ([1]; phytase 2000 U/kg, n=8) was 3.6 g/kg and the “metatarsal Mn concentration” value ([1]; phytase 2000 U/kg, n=8) was 1.1 mg/kg. For the same molecule, the “metatarsal Na concentration” value ([1]; phytase 2000 U/kg, n=8) was 6.2 g/kg, the “metatarsal P concentration” value ([1]; phytase 2000 U/kg, n=8) was 109.2 g/kg and the “metatarsal S concentration” value ([1]; phytase 2000 U/kg, n=8) was 1.2 g/kg. For the same molecule, the “metatarsal Sr concentration” value ([1]; phytase 2000 U/kg, n=8) was 62.8 mg/kg, the “metatarsal Zn concentration” value ([1]; phytase 2000 U/kg, n=8) was 176.1 mg/kg and the “improvement in breaking strength of femur” value [2] was 20%. For the same molecule, the “improvement in breaking strength of metatarsals” value [2] was 16%, the total bone area of femur [3, 7] was 45.8 ± 0.7 cm² and the total bone area of metatarsal [3, 7] was 9 ± 0.2 cm². The “increase of total bone area of femur” value ([3]; main effect, P<0.05) was 5%, the “increase of total bone area of metatarsal” value ([3]; main effect, P<0.05) was 7% and the “elevation of BMD of the two bones (metatarsal, femur)” value [3, 8] was 9 to 11%. The “enhancement of BMC in both bones (metatarsal, femur)” value [3, 8] was 14 to 15%, the “enhancement of yield bending moment of femur” value ([4]; P<0.05) was 19% and the “larger cross-sectional area of femur vs diets without phytase” value ([4]; P=0.06) was 11%. The “femur Cross-sectional area” value [4, 9] was 165 mm^2, the “femur Cross-sectional radius” value [4, 9] was 9.0 mm and the “femur Maximum bending moment” value [4, 9] was 2263 kg × mm. The “femur Maximum stress” value [4, 9] was 4.0 kg/mm^2, the “femur Modulus of elasticity” value [4, 9] was 49 kg/mm^2 and the “femur Moment of inertia” value [4, 9] was 5419 mm^4. The “femur Strain” value [4, 9] was 0.06, the “femur Yield bending moment” value [4, 9] was 1507 kg-mm and the “femur Yield stress” value [4, 9] was 2.7 kg/mm^2. The “elevation of metatarsal concentration of Sr” value ([5]; main effect of phytase 2,000 U/kg, P<0.07) was 11%, the “femur Ca concentration” value [5, 9] was 300.3 g/kg and the “femur Cr concentration” value [5, 9] was 7.2 mg/kg. The “femur Fe concentration” value [5, 9] was 7.2 mg/kg, the “femur Mg concentration” value [5, 9] was 5.3 g/kg and the “femur Mn concentration” value [5, 9] was 0.8 mg/kg. The “femur Na concentration” value [5, 9] was 8.3 g/kg, the “femur P concentration” value [5, 9] was 178.6 g/kg and the “femur S concentration” value [5, 9] was 1.0 g/kg. The “femur Sr concentration” value [5, 9] was 94.3 mg/kg, the “femur Zn concentration” value [5, 9] was 220.1 mg/kg and the “metatarsal Ca concentration” value [5, 9] was 187.4 g/kg. The “metatarsal Cr concentration” value [5, 9] was 20.5 mg/kg, the “metatarsal Fe concentration” value [5, 9] was 15.3 mg/kg and the “metatarsal Mg concentration” value [5, 9] was 3.5 g/kg. The “metatarsal Mn concentration” value [5, 9] was 2.0 mg/kg, the “metatarsal Na concentration” value [5, 9] was 7.4 g/kg and the “metatarsal P concentration” value [5, 9] was 91.8 g/kg. For the same molecule, the “metatarsal S concentration” value [5, 9] was 0.9 g/kg, the “metatarsal Sr concentration” value [5, 9] was 73.5 mg/kg and the “metatarsal Zn concentration” value [5, 9] was 152.3 mg/kg. For the same molecule, the “decrease of Ca concentration in cancellous bones, femur and metacarpus” value [6] was 11 to 19%, the “total ash concentration of cortical bone, femurs” value [6] was “not altered” and the “elevation of Sr concentration in cancellous bone, femur” value ([6]; P<0.002) was 127 fold. For the same molecule, the “increase in Fe concentration of cancellous bone, metacarpus” value ([6]; P<0.05) was 22%.
